T1: Hap-1742 (HapY), non-LEC1-type HAP3-like / NF-YB subunit of a CCAAT-box binding factor from Nannochloropsis … (Nannochloropsis gaditana)
T1 construct: also called Nannochloropsis NF-YB polypeptide
T1 chain: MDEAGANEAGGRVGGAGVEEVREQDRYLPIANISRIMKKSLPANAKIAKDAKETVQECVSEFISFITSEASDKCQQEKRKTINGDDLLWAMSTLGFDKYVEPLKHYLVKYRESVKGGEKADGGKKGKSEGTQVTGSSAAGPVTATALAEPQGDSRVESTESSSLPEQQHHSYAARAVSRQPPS

B1: EUKT6092, Nannochloropsis NF-YC polypeptide (other)
chain: MSGASGNGANPAVQQPYIPTDAEQAEHLQNLIRKLKDFWVEQLAEMETLSLASEQDFKNYIDLPLARIKRIMKSDEDVHMISAEVLVLFAKACEMFILELTIRSWCYSERSKRRTLQREDIQAAIANADILDFLVNIV
notes: Yeast two hybrid prey clone from a cDNA library in pGADT7-rec (Clontech), in yeast strain Y2HGold; also called NF-Y C subunit; HAP5 polypeptide
B2: EUKT1490, Nannochloropsis NF-YC polypeptide (other)
chain: MRLYRQIKKASMSRSPEVLQTSNSALSYASPSQAPSGAAIMMPTAPALPGRSTNTPNTQTGTEERKRDTPEGPKPSPLAGTPASMKAEEAPVSSKKARNAPIPPLSTSNAYVTEDTTLAIPRASIKRIMKLDPDTKQLSQDAIMVMAKATELFIDKLAKASHSMAVTNKRKTIKYEDIADARFSQKNMEFLDGVVPQIP
notes: as for B1
B3: NF-YA-1257 (EUKT1257), Nannochloropsis NF-Y subunit A (other)
chain: MDGAETGSGGDSDSGGGRKKIVRPCSSAETSLSMDVTATSYQGTNFNHMLSHGAPASAMVETHDGEGSLCPFPFQPPPHQQHNLQYQQPQEHQMQQTYYGQMNDDGNNFYDHSPHMEGFEPLGAPQEAAGSDLGPQPIFVNPKQYERIMKRREARARLENHRKIAAERKPFLHKSRHLHAVKRPRGPGGRFLTKEERIAWDEEQAQLEGTSTMGAVHVSNEVAAKTLYSSAQASIAAGPPLASQQGSRHASPPFSSPLSSSSCLPPSASTPVAPSGPSSYCSSSPII
notes: The open reading frame was cloned into prey vector pGADT7 (Clontech) and expressed in yeast strain Y2HGold; also called CBF-B/NF-YA

Experiments:
[1] = biological target: T1, Hap-1742 (HapY), non-LEC1-type …; assay: yeast two hybrid screen, Hap-1742 bait against Nannochloropsis cDNA prey library
Description: Based on these numbers, it is estimated that more than 10 million interactions were tested.

[2] = biological target: T1, Hap-1742 (HapY), non-LEC1-type …; assay: yeast two hybrid, NF-YA-1257 prey strain mated with Hap-1742 bait strain

Row | Binder | binding result [1] | binding result [2]
1 | B1 | binds | 
2 | B2 | binds | 
3 | B3 |  | binds

From patent US20150191515A1 (SYNTHETIC GENOMICS, published 2015)
